Measurements from patent US20090311183 (published 2009).
Read-outs that look alike come from different tables or passages of the source.

How the values were obtained:
Assay in all cases: SPR
[1] = molecular target: human MMP-12 (human)
[2] = molecular target: mouse MMP-12 (mouse)
[3] = molecular target: human MMP-12 (human); remark: listed apart in the source

human MMP-12 (human), sequence (B2R9X8 whole entry): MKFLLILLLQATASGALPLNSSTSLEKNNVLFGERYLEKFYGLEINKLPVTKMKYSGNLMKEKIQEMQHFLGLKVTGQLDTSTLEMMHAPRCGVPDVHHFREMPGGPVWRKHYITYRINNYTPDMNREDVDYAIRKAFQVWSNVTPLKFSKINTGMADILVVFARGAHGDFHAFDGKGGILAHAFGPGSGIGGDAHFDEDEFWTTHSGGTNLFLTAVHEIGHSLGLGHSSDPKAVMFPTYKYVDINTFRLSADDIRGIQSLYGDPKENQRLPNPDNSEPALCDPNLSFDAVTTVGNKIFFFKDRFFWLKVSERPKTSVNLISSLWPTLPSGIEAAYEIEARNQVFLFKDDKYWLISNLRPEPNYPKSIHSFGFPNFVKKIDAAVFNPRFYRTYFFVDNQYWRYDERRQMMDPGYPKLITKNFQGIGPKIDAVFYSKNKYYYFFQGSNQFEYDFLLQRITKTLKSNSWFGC
mouse MMP-12 (mouse), sequence (chain, as listed by the source): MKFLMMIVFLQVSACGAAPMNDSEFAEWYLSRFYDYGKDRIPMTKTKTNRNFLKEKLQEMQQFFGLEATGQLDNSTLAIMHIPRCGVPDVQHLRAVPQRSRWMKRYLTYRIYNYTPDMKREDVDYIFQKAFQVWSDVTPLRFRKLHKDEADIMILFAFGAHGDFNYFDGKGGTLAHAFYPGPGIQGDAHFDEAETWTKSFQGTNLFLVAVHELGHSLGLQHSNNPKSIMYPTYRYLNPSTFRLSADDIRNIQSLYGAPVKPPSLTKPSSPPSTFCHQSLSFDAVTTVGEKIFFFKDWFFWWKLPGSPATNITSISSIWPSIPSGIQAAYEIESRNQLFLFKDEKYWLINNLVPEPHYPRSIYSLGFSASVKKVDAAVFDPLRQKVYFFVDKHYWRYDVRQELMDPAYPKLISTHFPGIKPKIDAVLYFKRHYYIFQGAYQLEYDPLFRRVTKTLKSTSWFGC

B1: 539B-M0121-E07 (antibody, V domains shown)
VH: EVQLLESGGGLVQPGGSLRLSCAASGFTFSWYGMHWVRQAPGKGLEWVSGIVSSGGETFYADSVKGRFTISRDNSKNTLYLQMNSLRAEDTAVYYCAKDIRGVFLSGLFDHWGRGTLVTVSS
VL: DIQMTQSPSSLSASVGDRVTITCRANQSIYTYLNWYQQKPGKAPELLIYAASSLQSGVPSRFSGSGSGTDFTLTISSLQPEDFATYYCQQAGIFGQGTKLEIK
Kd [1]: 197 pM

B2: 539B-M0131-A06 (antibody, V domains shown)
VH: EVQLLESGGGLVQPGGSLRLSCAASGFTFSWYWMHWVRQAPGKGLEWVSGISPSGGMTMYADSVKGRFTISRDNSKNTLYLQMNSLRAEDTAVYYCARDIVGPYSAGLFDYWGRGTLVTVSS
VL: DIQMTQSPSSLSASVGDRVTITCRANQSIYTYLNWYQQKPGKAPELLIYAASSLQSGVPSRFSGSGSGTDFTLTISSLQPEDFATYYCQQAGIFGQGTKLEIK
koff [2]: 4.84e-05 s⁻¹

B3: 539B-M0118-F11 (antibody, V domains shown)
VH: EVQLLESGGGLVQPGGSLRLSCAASGFTFSYYNMHWVRQAPGKGLEWVSGISPSGGTTFYADSVKGRFTISRDNSKNTLYLQMNSLRAEDTAVYYCARDITGAYSAGLFDLWGRGTLVTVSS
VL: DIQMTQSPSSLSASVGDRVTITCRANQSIYTYLNWYQQKPGKAPELLIYAASSLQSGVPSRFSGSGSGTDFTLTISSLQPEDFATYYCQQAGIFGQGTKLEIK
koff [2]: 0.000193 s⁻¹ | Kd [1]: 1170 pM

B4: 539B-M0065-H05 IgG (antibody, V domains shown)
VH: EVQLLESGGGLVQPGGSLRLSCAASGFTFSYYGMGWVRQAPGKGLEWVSVISSSGGFTFYADSVKGRFTISRDNSKNTLYLQMNSLRAEDTAVYYCAKDIRGAYSSGLFDYWGRGTLVTVSS
VL: DIQMTQSPSSLSASVGDRVTITCRANQSIYTYLNWYQQKPGKAPELLIYAASSLQSGVPSRFSGSGSGTDFTLTISSLQPEDFATYYCQQAGIFGQGTKLEIK
Kd [3]: 2200 pM

B5: 539B-M0130-C12 (antibody, V domains shown)
VH: EVQLLESGGGLVQPGGSLRLSCAASGFTFSEYNMHWVRQAPGKGLEWVSGIVPSGGLTHYADSVKGRFTISRDNSKNTLYLQMNSLRAEDTAVYYCARDIRGAYSAGIFDYWGRGTLVTVSS
VL: DIQMTQSPSSLSASVGDRVTITCRANQSIYTYLNWYQQKPGKAPELLIYAASSLQSGVPSRFSGSGSGTDFTLTISSLQPEDFATYYCQQAGIFGQGTKLEIK
Kd [3]: 680 pM
